Changes are numbered by the printed parent chain. One block for each binder: values may come before it.
Molecular target: T1, hIL-3 receptor (human, UniProt P26951)
T1 sequence: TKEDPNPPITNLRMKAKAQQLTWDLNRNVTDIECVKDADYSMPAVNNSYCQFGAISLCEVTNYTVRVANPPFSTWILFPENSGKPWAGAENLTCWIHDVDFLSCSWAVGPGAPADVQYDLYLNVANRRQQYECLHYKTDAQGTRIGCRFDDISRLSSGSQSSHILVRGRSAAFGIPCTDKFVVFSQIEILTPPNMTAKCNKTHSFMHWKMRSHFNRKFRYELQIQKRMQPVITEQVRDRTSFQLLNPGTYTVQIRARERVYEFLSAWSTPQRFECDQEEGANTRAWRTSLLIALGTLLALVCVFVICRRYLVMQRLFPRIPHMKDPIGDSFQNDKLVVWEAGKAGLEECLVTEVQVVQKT
Experiment: cell-based or functional assay

Relative Biological Activity (AML 193 proliferation): 0.5 EC50 (1-133)hIL-3 / EC50 mutant
B1: pMON13412 polypeptide (ligand)
chain: MANCSIMIDEIIHHLKRPPNPLLDPNNLNSEDMDILMERNLRTPNLLAFVRAVKHLENASGIEAILRNLQPCLPSATAAPSRHPIIIKAGDWQEFRLKLQFYLSTL

Relative Biological Activity (AML 193 proliferation): 0.09 EC50 (1-133)hIL-3 / EC50 mutant
B2: pMON13400 polypeptide (ligand)
chain: MANCSIMPDEAIHHLKIPPNPSLDSANLNSEDVSILMERNLRTPNLLAFVRAVKHLENASGIEAILRNLQPCLPSATAAPSRHPIIIKAGDWQEFREKLTFYLVTLEQAQEQQ

Relative Biological Activity (AML 193 proliferation): 20 EC50 (1-133)hIL-3 / EC50 mutant
B3: pMON13402 polypeptide (ligand)
chain: B2 chain with P8I, A11L

Relative Biological Activity (AML 193 proliferation): 0.03 EC50 (1-133)hIL-3 / EC50 mutant
B4: pMON13403 polypeptide (ligand)
chain: MANCSIMIDEIIHHLKRPPNPLLDPNNLNSEDMDILMDSNLRTPNLLAFPHASKQLENASGIEAILRNLQPCLPSATAAPSRHPIIIKAGDWQEFREKLTFYLVTLEQAQEQQ

Relative Biological Activity (AML 193 proliferation): 0.6 EC50 (1-133)hIL-3 / EC50 mutant
B5: pMON13413 polypeptide (ligand)
chain: B4 chain with D38E, S39R, P50V, H51R, S53V, Q55H, E97L, T100Q, V104S, T105S

Relative Biological Activity (AML 193 proliferation): 1.2 EC50 (1-133)hIL-3 / EC50 mutant
B6: pMON13411 polypeptide (ligand)
chain: B4 chain with D38E, S39R, P50V, H51R, S53V, Q55H, E97L, T100Q, V104S

Relative Biological Activity (AML 193 proliferation): 0.015 EC50 (1-133)hIL-3 / EC50 mutant
B7: pMON13419 polypeptide (ligand)
chain: B4 chain with R42L, E97L, T100Q, V104S, T105S

Relative Biological Activity (AML 193 proliferation): 36 EC50 (1-133)hIL-3 / EC50 mutant
B8: pMON13367 polypeptide (ligand)
chain: MANCSIMIDEIIHHLKRPPAPLLDPNNLNAEDVSILMDRNLRLPNLESFVRAVKNLENASGIEAILRNLQPCLPSATAAPSRHPIIIKAGDWQEFREKLTFYLVTLEQAQEQQ

Relative Biological Activity (AML 193 proliferation): 30 EC50 (1-133)hIL-3 / EC50 mutant
B9: pMON13391 polypeptide (ligand)
chain: B8 chain with L22S, S34D, D38E

Relative Biological Activity (AML 193 proliferation): 0.5 EC50 (1-133)hIL-3 / EC50 mutant
B10: pMON13421 polypeptide (ligand)
chain: B8 chain with I11A, L22S, A30D, V33M, P44S

Relative Biological Activity (AML 193 proliferation): 10 EC50 (1-133)hIL-3 / EC50 mutant
B11: pMON13381 polypeptide (ligand)
chain: B8 chain with S34D, D38E, Q70W

Relative Biological Activity (AML 193 proliferation): 32 EC50 (1-133)hIL-3 / EC50 mutant
B12: pMON13387 polypeptide (ligand)
chain: B8 chain with S34D

Relative Biological Activity (AML 193 proliferation): 6 EC50 (1-133)hIL-3 / EC50 mutant
B13: pMON13425 polypeptide (ligand)
chain: B4 chain with M7I, M33V, M37L, D38E, S39R, P50V, H51R, S53V, Q55H

Relative Biological Activity (AML 193 proliferation): 19 EC50 (1-133)hIL-3 / EC50 mutant
B14: pMON13420 polypeptide (ligand)
chain: B8 chain with I11A, L22S, A30D, P44S

Relative Biological Activity (AML 193 proliferation): 0.9 EC50 (1-133)hIL-3 / EC50 mutant
B15: pMON13379 polypeptide (ligand)
chain: B8 chain with T100Q

Relative Biological Activity (AML 193 proliferation): 12 EC50 (1-133)hIL-3 / EC50 mutant
B16: pMON13373 polypeptide (ligand)
chain: B8 chain with A30D, V33M

Relative Biological Activity (AML 193 proliferation): 16 EC50 (1-133)hIL-3 / EC50 mutant
B17: pMON13397 polypeptide (ligand)
chain: B8 chain with S34D, D38E, Q70W, K88R, A89M

Relative Biological Activity (AML 193 proliferation): 0.25 EC50 (1-133)hIL-3 / EC50 mutant
B18: pMON13384 polypeptide (ligand)
chain: B8 chain with S34D, D38E, T100Q

Relative Biological Activity (AML 193 proliferation): 7 EC50 (1-133)hIL-3 / EC50 mutant
B19: pMON13408 polypeptide (ligand)
chain: B4 chain with M37I, D38E, S39R, P50V, H51R, S53V, Q55H

Relative Biological Activity (AML 193 proliferation): 1 EC50 (1-133)hIL-3 / EC50 mutant
B20: pMON13385 polypeptide (ligand)
chain: B8 chain with R17V, A20R, L22S, S34D, D38E

Relative Biological Activity (AML 193 proliferation): 10 EC50 (1-133)hIL-3 / EC50 mutant
B21: pMON13389 polypeptide (ligand)
chain: B8 chain with A30D, V33M, S34D, D38E

Relative Biological Activity (AML 193 proliferation): 4 EC50 (1-133)hIL-3 / EC50 mutant
B22: pMON13414 polypeptide (ligand)
chain: B4 chain with M7I, D38E, S39R, P50V, H51R, S53V, Q55H

Relative Biological Activity (AML 193 proliferation): 15 EC50 (1-133)hIL-3 / EC50 mutant
B23: pMON13409 polypeptide (ligand)
chain: B4 chain with M37L, D38E, S39R, P50V, H51R, S53V, Q55H

Relative Biological Activity (AML 193 proliferation): 16 EC50 (1-133)hIL-3 / EC50 mutant
B24: pMON13407 polypeptide (ligand)
chain: B4 chain with M33V, D38E, S39R, P50V, H51R, S53V, Q55H

Relative Biological Activity (AML 193 proliferation): > 0.0003 EC50 (1-133)hIL-3 / EC50 mutant
B25: pMON13426 polypeptide (ligand)
chain: B4 chain with M7A, M33V, M37D, D38E, S39R, P50V, H51R, S53V, Q55H

Relative Biological Activity (AML 193 proliferation): 0.05 EC50 (1-133)hIL-3 / EC50 mutant
B26: pMON13380 polypeptide (ligand)
chain: B8 chain with I11A, R17V, P25S, A30S, V33M, S34D, D38E, E47L, S48A, T100Q

Relative Biological Activity (AML 193 proliferation): 23 EC50 (1-133)hIL-3 / EC50 mutant
B27: pMON13388 polypeptide (ligand)
chain: B8 chain with S34D, P44S

Relative Biological Activity (AML 193 proliferation): 0.4 EC50 (1-133)hIL-3 / EC50 mutant
B28: pMON13423 polypeptide (ligand)
chain: B4 chain with M7I, M33V, M37I, D38E, S39R, P50V, H51R, S53V, Q55H

Relative Biological Activity (AML 193 proliferation): 4 EC50 (1-133)hIL-3 / EC50 mutant
B29: pMON13415 polypeptide (ligand)
chain: B4 chain with M7I, M33V, D38E, S39R, P50V, H51R, S53V, Q55H

Relative Biological Activity (AML 193 proliferation): 10 EC50 (1-133)hIL-3 / EC50 mutant
B30: pMON13432 polypeptide (ligand)
chain: B8 chain with I11A, L22S, A30D, V33M

Relative Biological Activity (AML 193 proliferation): 32 EC50 (1-133)hIL-3 / EC50 mutant
B31: pMON13393 polypeptide (ligand)
chain: B8 chain with I11A, L22S, A30D, V33M, D38E

Relative Biological Activity (AML 193 proliferation): 38 EC50 (1-133)hIL-3 / EC50 mutant
B32: pMON13382 polypeptide (ligand)
chain: B8 chain with S34D, D38E, T100Q, V104W

Relative Biological Activity (AML 193 proliferation): 0.4 EC50 (1-133)hIL-3 / EC50 mutant
B33: pMON13410 polypeptide (ligand)
chain: B4 chain with M37D, D38E, S39R, P50V, H51R, S53V, Q55H

Relative Biological Activity (AML 193 proliferation): 20 EC50 (1-133)hIL-3 / EC50 mutant
B34: pMON13396 polypeptide (ligand)
chain: B8 chain with S34D, D38E, K88R, A89M

Relative Biological Activity (AML 193 proliferation): 10 EC50 (1-133)hIL-3 / EC50 mutant
B35: pMON13369 polypeptide (ligand)
chain: B8 chain with A30D

Relative Biological Activity (AML 193 proliferation): 6 EC50 (1-133)hIL-3 / EC50 mutant
B36: pMON13374 polypeptide (ligand)
chain: B8 chain with A30S, V33M

Relative Biological Activity (AML 193 proliferation): 1.6 EC50 (1-133)hIL-3 / EC50 mutant
B37: pMON13368 polypeptide (ligand)
chain: B8 chain with I11A, R17V, P25S, A30S, V33M, S34D, D38E, E47L, S48A

Relative Biological Activity (AML 193 proliferation): 3 EC50 (1-133)hIL-3 / EC50 mutant
B38: pMON13424 polypeptide (ligand)
chain: B4 chain with M7A, M33V, M37L, D38E, S39R, P50V, H51R, S53V, Q55H

Relative Biological Activity (AML 193 proliferation): 9 EC50 (1-133)hIL-3 / EC50 mutant
B39: pMON13405 polypeptide (ligand)
chain: B4 chain with M7A, M33V, D38E, S39R, P50V, H51R, S53V, Q55H

Relative Biological Activity (AML 193 proliferation): 5 EC50 (1-133)hIL-3 / EC50 mutant
B40: pMON13406 polypeptide (ligand)
chain: B4 chain with M7A, D38E, S39R, P50V, H51R, S53V, Q55H

Relative Biological Activity (AML 193 proliferation): 0.4 EC50 (1-133)hIL-3 / EC50 mutant
B41: pMON13422 polypeptide (ligand)
chain: B4 chain with M7A, M33V, M37I, D38E, S39R, P50V, H51R, S53V, Q55H

Relative Biological Activity (AML 193 proliferation): 17 EC50 (1-133)hIL-3 / EC50 mutant
B42: pMON13392 polypeptide (ligand)
chain: B8 chain with A30D, S34D, D38E

Relative Biological Activity (AML 193 proliferation): 6 EC50 (1-133)hIL-3 / EC50 mutant
B43: pMON13370 polypeptide (ligand)
chain: B8 chain with V33M

Relative Biological Activity (AML 193 proliferation): 14 EC50 (1-133)hIL-3 / EC50 mutant
B44: pMON13375 polypeptide (ligand)
chain: MANCSIMIDEIIHHLKRPPAPLLDPNNLNAEDVDILMERNLRLPNLESFVRAVKNLENASGIEAILRNLQPCLPSATAAPSRHPIIIKAGDWQEFREKLTFYLVTLE

Relative Biological Activity (AML 193 proliferation): 0.4 EC50 (1-133)hIL-3 / EC50 mutant
B45: pMON13376 polypeptide (ligand)
chain: B44 chain with A2D, I11A, T100Q

Relative Biological Activity (AML 193 proliferation): 1.3 EC50 (1-133)hIL-3 / EC50 mutant
B46: pMON13404 polypeptide (ligand)
chain: B44 chain with T100Q

Relative Biological Activity (AML 193 proliferation): 0.5 EC50 (1-133)hIL-3 / EC50 mutant
B47: pMON13418 polypeptide (ligand)
chain: MANCSIMIDEIIHHLKRPPNPLLDPNNLNSEDMDILMERNLRTPNLLAFVRAVKHLENASGIEPILSNLQPCVPYWTAPPSRTPITIKAGDWQEFREKLTFYLVTLEQAQEQQ
